According to paper PMC10415612:
Read-outs that look alike come from different tables or passages of the source.

Columns and labels:
[1] = biological target: bacterial proteasome activator (Bpa), fluorescein-labelled (M. tuberculosis) (UniProt P9WKX3)
[2] = biological target: bacterial proteasome activator (Bpa), fluorescein-labelled (M. tuberculosis) (UniProt P9WKX3); assay: MST
[3] = biological target: bacterial proteasome activator (Bpa), fluorescein-labelled (M. tuberculosis) (UniProt P9WKX3); assay: MST; remark: listed apart in the source
[4] = biological target: bacterial proteasome activator (Bpa), labelled with RED-NHS second generation dye (M. tuberculosis) (UniProt P9WKX3); assay: MST; temperature-related fluorescence intensity changes (T-jump model) on a Monolith NT.115; 250 nM Bpa-RED protomer titrated with serial dilutions of peptides 1-7; buffer M (50 mM HEPES-KOH pH 7.5, 150 mM NaCl, 5 mM MgCl2, 5% glycerol, 0.1% pluronic 127, 2% DMSO); 25°C; qualitative screen, then peptide 1 in triplicates

Substance	Bpa-mediated proteasomal degradation by 20S CP WT, SDS-PAGE time course, 37°C (unlabelled Bpa) (min to degradation) [1]	Kd [2]	Kd [3]	Bpa-mediated proteasomal degradation by 20S CP WT, SDS-PAGE time course, 37°C (unlabelled Bpa) (% degraded after 2 h) [1]	Kd [4]
heat shock repressor HspR, wild type (natural protein)	< 5	5.6 µM	3.56 µM	–	–
HspR H24A (natural protein)	–	–	12.1 µM	90	–
HspRΔC9, C-terminal truncation variant of HspR (domain or fragment)	–	3.62 µM	–	–	–
HspR peptide 1 (residues 16-30)	–	–	–	–	330 µM
